The supplement of paper PMC7125110
± gives the standard error. Fewer inactive variants are shown than the library holds.

B1: glmS ribozyme (parent)
chain: AUAAAAGCGCCAGAACUACAGAAAUGUAGUUGACGAGGAGGAGGUUUAUCGAAUUUUCGGCGGAUGCCUCCAAA

How the values were obtained:
Details in all cases: with glucosamine-6-phosphate
glucosamine-6-phosphate [1] = variants of: B1; assay: self-cleavage kobs at 40 uM GlcN6P; higher = faster cleavage; RNA array
Procedure, shortened: (§1)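 Barcoded ribozyme variants were transcribed in situ on sequenced MiSeq chips by E. coli RNA polymerase. At 37 °C, a hybridised Cy3 probe tracked them while glucosamine-6-phosphate (40 μM to 10 mM) in HEPES/KCl/Mg(OAc)2 buffer flowed in and tiles were imaged over ~14 h. Per-tile medians of signals normalised to baseline and to non-cleaving reference variants were fit to one- or two-exponential decays, giving kobs. kcat and KM came from weighted Michaelis–Menten fits across concentrations.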

glucosamine-6-phosphate [2] = variants of: B1; assay: self-cleavage kobs at 160 uM GlcN6P; higher = faster cleavage; RNA array
Procedure, shortened: as §1

glucosamine-6-phosphate [3] = variants of: B1; assay: self-cleavage kobs at 640 uM GlcN6P; higher = faster cleavage; RNA array
Procedure, shortened: as §1

glucosamine-6-phosphate [4] = variants of: B1; assay: self-cleavage kobs at 2500 uM GlcN6P; higher = faster cleavage; RNA array
Procedure, shortened: as §1

glucosamine-6-phosphate [5] = variants of: B1; assay: self-cleavage kobs at 10000 uM GlcN6P; higher = faster cleavage; RNA array
Procedure, shortened: as §1

| Variant | self-cleavage kobs at 40 uM GlcN6P (glucosamine-6-phosphate [1]) [s⁻¹] | self-cleavage kobs at 160 uM GlcN6P (glucosamine-6-phosphate [2]) [s⁻¹] | self-cleavage kobs at 640 uM GlcN6P (glucosamine-6-phosphate [3]) [s⁻¹] | self-cleavage kobs at 2500 uM GlcN6P (glucosamine-6-phosphate [4]) [s⁻¹] | self-cleavage kobs at 10000 uM GlcN6P (glucosamine-6-phosphate [5]) [s⁻¹] |
| --- | --- | --- | --- | --- | --- |
| C11A A12G U65A C67G | 0.000126 ± 3e-05 | 0.000766 ± 0.00026 | 0.000193 ± 6.4e-05 | 0.000105 ± 2.9e-05 | 5.83e-05 ± 1.5e-05 |
| C8U C16A | < 1e-05 | – | < 1e-05 | < 1e-05 | < 1e-05 |
| G59A C68U U69G | < 1e-05 | – | – | – | – |
| G7A C34A | < 1e-05 | < 1e-05 | < 1e-05 | < 1e-05 | < 1e-05 |
| A36G G37C | < 1e-05 | < 1e-05 | – | – | < 1e-05 |
| A6G G51U U65A | < 1e-05 | – | – | – | < 1e-05 |
| A14U C70U | 0.000285 ± 2.5e-05 | 0.000441 ± 6.1e-05 | 0.00104 ± 0.00018 | 0.00724 ± 0.0015 | – |
| G37A A42C U47G | < 1e-05 | < 1e-05 | < 1e-05 | – | – |
| G40U G44C | < 1e-05 | < 1e-05 | < 1e-05 | – | – |
| U30G G44U | < 1e-05 | < 1e-05 | – | – | 4.23e-05 ± 1.3e-05 |
| A42C A52U C61U | < 1e-05 | – | < 1e-05 | – | – |
| A39C A52G G59U U69G | < 1e-05 | – | – | – | – |
| A6U C10A G38U | < 1e-05 | – | – | – | < 1e-05 |
| G35C C68A C71U | < 1e-05 | – | < 1e-05 | < 1e-05 | < 1e-05 |
| G32U C50G C68G | 0.00012 ± 2.5e-05 | – | – | – | 9.96e-05 ± 1.7e-05 |
| G13C G38A C58U | < 1e-05 | – | – | – | – |
| G35U G66U | < 1e-05 | < 1e-05 | < 1e-05 | < 1e-05 | < 1e-05 |
| G7C G35A | < 1e-05 | – | < 1e-05 | < 1e-05 | < 1e-05 |
| C10A G13U G37U G60A U65A | < 1e-05 | – | < 1e-05 | – | < 1e-05 |
| C10G A53C A64G | < 1e-05 | < 1e-05 | < 1e-05 | < 1e-05 | < 1e-05 |
| G41U U65C | < 1e-05 | < 1e-05 | – | – | 2.23e-05 ± 7.2e-06 |
| C11A G43U | < 1e-05 | < 1e-05 | < 1e-05 | – | < 1e-05 |
| A6G C50G C58G | 0.000111 ± 2.7e-05 | 0.000451 ± 0.0001 | – | – | – |

| Variant | self-cleavage kobs at 40 uM GlcN6P (glucosamine-6-phosphate [1]) [s⁻¹] | self-cleavage kobs at 160 uM GlcN6P (glucosamine-6-phosphate [2]) [s⁻¹] | self-cleavage kobs at 640 uM GlcN6P (glucosamine-6-phosphate [3]) [s⁻¹] | self-cleavage kobs at 2500 uM GlcN6P (glucosamine-6-phosphate [4]) [s⁻¹] | self-cleavage kobs at 10000 uM GlcN6P (glucosamine-6-phosphate [5]) [s⁻¹] |
| --- | --- | --- | --- | --- | --- |
| G9A G63A | < 1e-05 | – | < 1e-05 | < 1e-05 | < 1e-05 |
| G9U A15C G44C U47C | < 1e-05 | – | – | < 1e-05 | < 1e-05 |
| A12C C58U G63U | < 1e-05 | – | – | – | < 1e-05 |
| G9U G38A U56C G63U | < 1e-05 | – | – | – | < 1e-05 |
| U55G U56G G62C | < 1e-05 | – | – | – | < 1e-05 |
| G29U G35U A36G | < 1e-05 | – | – | – | – |
| U31C A36G A39G U47C | < 1e-05 | – | – | – | < 1e-05 |
| A14C A36G | < 1e-05 | < 1e-05 | < 1e-05 | < 1e-05 | < 1e-05 |
| A15C G37A U57G C67G | < 1e-05 | – | – | – | < 1e-05 |
| C50A A53C | < 1e-05 | – | – | – | – |
| A12U G29A A39G A53U | 0.000581 ± 0.00016 | – | – | – | 0.0117 ± 0.0041 |
| G37C U46A | < 1e-05 | < 1e-05 | < 1e-05 | – | < 1e-05 |
| A12G A15U U49A U54G | < 1e-05 | – | – | – | – |
| G13U A36G | < 1e-05 | < 1e-05 | < 1e-05 | < 1e-05 | < 1e-05 |
| G35C G59U C61U | < 1e-05 | < 1e-05 | < 1e-05 | < 1e-05 | < 1e-05 |
| C11G A33C | < 1e-05 | < 1e-05 | – | < 1e-05 | – |
| G9C C11G G40A | < 1e-05 | – | – | – | < 1e-05 |
| G9A A14C G44U U47C | < 1e-05 | – | – | – | – |
| U31G A39C G44C | < 1e-05 | – | – | – | – |
| G9A C61A | < 1e-05 | < 1e-05 | < 1e-05 | < 1e-05 | < 1e-05 |
| G7U G9C C11G A12C U55A | < 1e-05 | – | – | – | < 1e-05 |
| G32U G62U | < 1e-05 | < 1e-05 | < 1e-05 | < 1e-05 | < 1e-05 |
